B1: Variant A2M, bait region SEQ ID NO 132, P01023 24-1474 (protein)
chain: SVSGKPQYMVLVPSLLHTETTEKGCVLLSYLNETVTVSASLESVRGNRSLFTDLEAENDVLHCVAFAVPKSSSNEEVMFLTVQVKGPTQEFKKRTTVMVKNEDSLVFVQTDKSIYKPGQTVKFRVVSMDENFHPLNELIPLVYIQDPKGNRIAQWQSFQLEGGLKQFSFPLSSEPFQGSYKVVVQKKSGGRTEHPFTVEEFVLPKFEVQVTVPKIITILEEEMNVSVCGLYTYGKPVPGHVTVSICRKYSDASDCHGEDSQAFCEKFSGQLNSHGCFYQQVKTKVFQLKRKEYEMKLHTEAQIQEEGTVVELTGRQSSEITRTITKLSFVKVDSHFRQGIPFFGQVRLVDGKGVPIPNKVIFIRGNEANYYSNATTDEHGLVQFSINTTNVMGTSLTVRVNYKDRSPCYGYQWVSEEHEEAHHTAYLVFSPSKSFVHLEPMSHELPCGHTQTVQAHYILNGGTLLGLKKLSFYYLIMAKGGIVRTGTHGLLVKQEDMKGHFSISIPVKSDIAPVARLLIYAVLPTGDVIGDSAKYDVENCLANKVDLSFSPSQSLPASHAHLRVTAAPQSVCALRAVDQSVLLMKPDAELSASSVYNLLPEKDLTGFPGPLNDQDDEDCINRHNVYINGITYTPVSSTNEKDMYSFLEDMGLKAFTNSKIRKPKMCPQLEQYEMHGPEGEGEGEGIPENFFGVSELEGRGSSEDLVVQIVEEPHTKLRKYFPETWIWDLVVVNSAGVAEVGVTVPDTITEWKAGAFCLSEDAGLGISSTASLRAFQPFFVELTMPYSVIRGEAFTLKATVLNYLPKCIRVSVQLEASPAFLAVPVEKEQAPHCICANGRQTVSWAVTPKSLGNVNFTVSAEALESQELCGTEVPSVPEHGRKDTVIKPLLVEPEGLEKETTFNSLLCPSGGEVSEELSLKLPPNVVEESARASVSVLGDILGSAMQNTQNLLQMPYGCGEQNMVLFAPNIYVLDYLNETQQLTPEIKSKAIGYLNTGYQRQLNYKHYDGSYSTFGERYGRNQGNTWLTAFVLKTFAQARAYIFIDEAHITQALIWLSQRQKDNGCFRSSGSLLNNAIKGGVEDEVTLSAYITIALLEIPLTVTHPVVRNALFCLESAWKTAQEGDHGSHVYTKALLAYAFALAGNQDKRKEVLKSLNEEAVKKDNSVHWERPQKPKAPVGHFYEPQAPSAEVEMTSYVLLAYLTAQPAPTSEDLTSATNIVKWITKQQNAQGGFSSTQDTVVALHALSKYGAATFTRTGKAAQVTIQSSGTFSSKFQVDNNNRLLLQQVSLPELPGEYSMKVTGEGCVYLQTSLKYNILPEKEEFPFALGVQTLPQTCDEPKAHTSFQISLSVSYTGSRSASNMAIVDVKMVSGFIPLKPTVKMLERSNHVSRTEVSSNHVLIYLDKVSNQTLSLFFTVLQDVPVRDLKPAIVKVYDYYETDEFAIAEYNAPCSKDLGNADYKDDDDKGASHHHHHH
B2: Variant A2M, bait region SEQ ID NO 129, P01023 24-1474 (protein)
chain: SVSGKPQYMVLVPSLLHTETTEKGCVLLSYLNETVTVSASLESVRGNRSLFTDLEAENDVLHCVAFAVPKSSSNEEVMFLTVQVKGPTQEFKKRTTVMVKNEDSLVFVQTDKSIYKPGQTVKFRVVSMDENFHPLNELIPLVYIQDPKGNRIAQWQSFQLEGGLKQFSFPLSSEPFQGSYKVVVQKKSGGRTEHPFTVEEFVLPKFEVQVTVPKIITILEEEMNVSVCGLYTYGKPVPGHVTVSICRKYSDASDCHGEDSQAFCEKFSGQLNSHGCFYQQVKTKVFQLKRKEYEMKLHTEAQIQEEGTVVELTGRQSSEITRTITKLSFVKVDSHFRQGIPFFGQVRLVDGKGVPIPNKVIFIRGNEANYYSNATTDEHGLVQFSINTTNVMGTSLTVRVNYKDRSPCYGYQWVSEEHEEAHHTAYLVFSPSKSFVHLEPMSHELPCGHTQTVQAHYILNGGTLLGLKKLSFYYLIMAKGGIVRTGTHGLLVKQEDMKGHFSISIPVKSDIAPVARLLIYAVLPTGDVIGDSAKYDVENCLANKVDLSFSPSQSLPASHAHLRVTAAPQSVCALRAVDQSVLLMKPDAELSASSVYNLLPEKDLTGFPGPLNDQDDEDCINRHNVYINGITYTPVSSTNEKDMYSFLEDMGLKAFTNSKIRKPKMCPQLEQYEMHGPEAIPMSIPTEGEGEGEGIPENFFGVSEDLVVQIVEEPHTKLRKYFPETWIWDLVVVNSAGVAEVGVTVPDTITEWKAGAFCLSEDAGLGISSTASLRAFQPFFVELTMPYSVIRGEAFTLKATVLNYLPKCIRVSVQLEASPAFLAVPVEKEQAPHCICANGRQTVSWAVTPKSLGNVNFTVSAEALESQELCGTEVPSVPEHGRKDTVIKPLLVEPEGLEKETTFNSLLCPSGGEVSEELSLKLPPNVVEESARASVSVLGDILGSAMQNTQNLLQMPYGCGEQNMVLFAPNIYVLDYLNETQQLTPEIKSKAIGYLNTGYQRQLNYKHYDGSYSTFGERYGRNQGNTWLTAFVLKTFAQARAYIFIDEAHITQALIWLSQRQKDNGCFRSSGSLLNNAIKGGVEDEVTLSAYITIALLEIPLTVTHPVVRNALFCLESAWKTAQEGDHGSHVYTKALLAYAFALAGNQDKRKEVLKSLNEEAVKKDNSVHWERPQKPKAPVGHFYEPQAPSAEVEMTSYVLLAYLTAQPAPTSEDLTSATNIVKWITKQQNAQGGFSSTQDTVVALHALSKYGAATFTRTGKAAQVTIQSSGTFSSKFQVDNNNRLLLQQVSLPELPGEYSMKVTGEGCVYLQTSLKYNILPEKEEFPFALGVQTLPQTCDEPKAHTSFQISLSVSYTGSRSASNMAIVDVKMVSGFIPLKPTVKMLERSNHVSRTEVSSNHVLIYLDKVSNQTLSLFFTVLQDVPVRDLKPAIVKVYDYYETDEFAIAEYNAPCSKDLGNADYKDDDDKGASHHHHHH
B3: Variant A2M, bait region SEQ ID NO 131, P01023 24-1474 (protein)
chain: SVSGKPQYMVLVPSLLHTETTEKGCVLLSYLNETVTVSASLESVRGNRSLFTDLEAENDVLHCVAFAVPKSSSNEEVMFLTVQVKGPTQEFKKRTTVMVKNEDSLVFVQTDKSIYKPGQTVKFRVVSMDENFHPLNELIPLVYIQDPKGNRIAQWQSFQLEGGLKQFSFPLSSEPFQGSYKVVVQKKSGGRTEHPFTVEEFVLPKFEVQVTVPKIITILEEEMNVSVCGLYTYGKPVPGHVTVSICRKYSDASDCHGEDSQAFCEKFSGQLNSHGCFYQQVKTKVFQLKRKEYEMKLHTEAQIQEEGTVVELTGRQSSEITRTITKLSFVKVDSHFRQGIPFFGQVRLVDGKGVPIPNKVIFIRGNEANYYSNATTDEHGLVQFSINTTNVMGTSLTVRVNYKDRSPCYGYQWVSEEHEEAHHTAYLVFSPSKSFVHLEPMSHELPCGHTQTVQAHYILNGGTLLGLKKLSFYYLIMAKGGIVRTGTHGLLVKQEDMKGHFSISIPVKSDIAPVARLLIYAVLPTGDVIGDSAKYDVENCLANKVDLSFSPSQSLPASHAHLRVTAAPQSVCALRAVDQSVLLMKPDAELSASSVYNLLPEKDLTGFPGPLNDQDDEDCINRHNVYINGITYTPVSSTNEKDMYSFLEDMGLKAFTNSKIRKPKMCPQLEQYEMHGPEGEGEGEGISEDLVVQIPENFFGVKEEEGLGSVEEPHTKLRKYFPETWIWDLVVVNSAGVAEVGVTVPDTITEWKAGAFCLSEDAGLGISSTASLRAFQPFFVELTMPYSVIRGEAFTLKATVLNYLPKCIRVSVQLEASPAFLAVPVEKEQAPHCICANGRQTVSWAVTPKSLGNVNFTVSAEALESQELCGTEVPSVPEHGRKDTVIKPLLVEPEGLEKETTFNSLLCPSGGEVSEELSLKLPPNVVEESARASVSVLGDILGSAMQNTQNLLQMPYGCGEQNMVLFAPNIYVLDYLNETQQLTPEIKSKAIGYLNTGYQRQLNYKHYDGSYSTFGERYGRNQGNTWLTAFVLKTFAQARAYIFIDEAHITQALIWLSQRQKDNGCFRSSGSLLNNAIKGGVEDEVTLSAYITIALLEIPLTVTHPVVRNALFCLESAWKTAQEGDHGSHVYTKALLAYAFALAGNQDKRKEVLKSLNEEAVKKDNSVHWERPQKPKAPVGHFYEPQAPSAEVEMTSYVLLAYLTAQPAPTSEDLTSATNIVKWITKQQNAQGGFSSTQDTVVALHALSKYGAATFTRTGKAAQVTIQSSGTFSSKFQVDNNNRLLLQQVSLPELPGEYSMKVTGEGCVYLQTSLKYNILPEKEEFPFALGVQTLPQTCDEPKAHTSFQISLSVSYTGSRSASNMAIVDVKMVSGFIPLKPTVKMLERSNHVSRTEVSSNHVLIYLDKVSNQTLSLFFTVLQDVPVRDLKPAIVKVYDYYETDEFAIAEYNAPCSKDLGNADYKDDDDKGASHHHHHH

Target: Protease Mixtures
Test: cell-based or functional assay

| Binder | Protease Inhibition (% of WT); Protease Mixtures, Collagen Substrate | Protease Inhibition (% of WT); Protease Mixtures, IGD Substrate |
| --- | --- | --- |
| B1 | 120 % of WT | 243 % of WT |
| B2 |  | 160 % of WT |
| B3 |  | 150 % of WT |

From US20230250154A1
